Patent US7422745 (IXSYS, dated 2008)
Positions count from the first letter of the chain named.

B1: LM609 grafted antibody Fab (parent molecule) (Fab, V domains shown)
VH: QVQLVESGGGVVQPGRSLRLSCAASGFTFSSYDMSWVRQAPGKGLEWVAKVSSGGGSTYYLDTVQGRFTISRDNSKNTLYLQMNSLRAEDTAVYYCARHNYGSFAYWGQGTTVTVSS
VL: EIVLTQSPATLSLSPGERATLSCQASQSISNHLHWYQQRPGQAPRLLIRYRSQSISGIPARFSGSGSGTDFTLTISSLEPEDFAVYYCQQSGSWPHTFGGGTKVEIK
notes: Fab expressed from M13 phage vector in E. coli, purified on protein A; also called LM609 grafted Fab; wild type
B2: LM609 grafted antibody combinatorial clone C59 (Fab, V domains shown)
VH: B1 VH with L61P, Y106D
VL: B1 VL with H32F
notes: Fab
B3: LM609 grafted antibody variant S102 (Fab, V domains shown)
VH: B1 VH with Y106S
VL: B1 VL
notes: Fab; also called clone S102

Assays:
[1] = target: integrin αvβ3 on cells (M21 human melanoma cells; human umbilical vein endothelial cells) (human) (UniProt P06756); experiment: cell-based or functional assay
integrin αvβ3 on cells (M21 human melanoma cells; human umbilical vein endothelial cells) (human), sequence (P06756 31-1048, chain 1 of 2): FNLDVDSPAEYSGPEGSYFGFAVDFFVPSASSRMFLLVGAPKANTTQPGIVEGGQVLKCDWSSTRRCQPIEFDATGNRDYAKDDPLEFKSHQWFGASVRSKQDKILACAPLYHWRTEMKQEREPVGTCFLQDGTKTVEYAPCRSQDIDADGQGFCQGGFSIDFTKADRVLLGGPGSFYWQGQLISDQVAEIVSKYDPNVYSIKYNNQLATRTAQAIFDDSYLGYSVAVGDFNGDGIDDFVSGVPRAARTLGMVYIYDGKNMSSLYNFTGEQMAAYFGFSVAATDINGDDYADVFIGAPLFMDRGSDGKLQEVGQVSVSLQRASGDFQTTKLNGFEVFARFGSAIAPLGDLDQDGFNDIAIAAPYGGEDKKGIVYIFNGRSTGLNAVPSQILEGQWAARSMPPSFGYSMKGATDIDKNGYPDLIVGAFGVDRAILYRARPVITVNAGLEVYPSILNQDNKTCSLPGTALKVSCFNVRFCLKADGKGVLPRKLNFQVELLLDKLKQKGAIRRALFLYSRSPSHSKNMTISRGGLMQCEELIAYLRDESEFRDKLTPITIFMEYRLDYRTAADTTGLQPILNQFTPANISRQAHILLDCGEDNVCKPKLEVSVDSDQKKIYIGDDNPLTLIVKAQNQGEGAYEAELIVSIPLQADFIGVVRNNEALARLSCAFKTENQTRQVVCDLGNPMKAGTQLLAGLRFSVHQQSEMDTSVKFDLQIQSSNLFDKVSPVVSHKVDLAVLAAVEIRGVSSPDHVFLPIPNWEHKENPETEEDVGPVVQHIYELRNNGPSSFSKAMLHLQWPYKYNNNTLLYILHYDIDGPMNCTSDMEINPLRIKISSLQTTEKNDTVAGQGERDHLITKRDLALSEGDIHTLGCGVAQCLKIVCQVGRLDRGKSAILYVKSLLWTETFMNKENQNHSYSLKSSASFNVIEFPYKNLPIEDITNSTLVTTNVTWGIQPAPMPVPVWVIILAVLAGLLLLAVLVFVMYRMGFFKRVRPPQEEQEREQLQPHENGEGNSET
integrin αvβ3 on cells (M21 human melanoma cells; human umbilical vein endothelial cells) (human), sequence (P05106 27-788, chain 2 of 2, further chain): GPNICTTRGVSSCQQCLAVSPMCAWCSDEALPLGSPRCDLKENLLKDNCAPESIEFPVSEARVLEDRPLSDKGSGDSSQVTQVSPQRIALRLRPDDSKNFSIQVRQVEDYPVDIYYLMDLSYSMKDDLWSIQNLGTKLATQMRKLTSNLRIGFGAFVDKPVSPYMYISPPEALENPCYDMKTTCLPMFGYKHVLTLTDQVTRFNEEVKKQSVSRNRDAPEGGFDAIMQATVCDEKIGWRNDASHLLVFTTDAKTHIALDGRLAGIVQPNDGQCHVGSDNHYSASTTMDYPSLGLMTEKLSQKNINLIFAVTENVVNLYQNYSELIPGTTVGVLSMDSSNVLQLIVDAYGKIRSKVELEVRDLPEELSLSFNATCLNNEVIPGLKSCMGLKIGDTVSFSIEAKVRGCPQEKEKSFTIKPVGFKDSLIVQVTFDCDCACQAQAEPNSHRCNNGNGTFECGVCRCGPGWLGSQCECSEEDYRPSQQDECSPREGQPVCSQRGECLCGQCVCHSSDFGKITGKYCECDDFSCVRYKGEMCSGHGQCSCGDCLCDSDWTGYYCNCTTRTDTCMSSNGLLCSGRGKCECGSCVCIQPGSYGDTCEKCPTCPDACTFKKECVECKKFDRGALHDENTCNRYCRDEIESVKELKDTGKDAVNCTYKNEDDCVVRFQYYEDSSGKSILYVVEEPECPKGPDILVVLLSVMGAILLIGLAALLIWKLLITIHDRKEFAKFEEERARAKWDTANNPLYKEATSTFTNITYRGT

[2] = target: T1, integrin αvβ3 (human vitronectin receptor), purified from human placenta (human, UniProt P06756 31-1048; P05106 27-788); experiment: ELISA titration of bacterial cell lysate containing Fab on immobilized αvβ3, detection with goat anti-human kappa-alkaline phosphatase
T1 construct: mature; coated on ELISA plates or immobilized on a BIAcore chip; Biotinylated in capture lift and capture ELISA screens; also called avb3; αvβ3 receptor
T1 sequence (P06756 31-1048, form in doubt, chain 1 of 2): as the sequence (P06756 31-1048, chain 1 of 2) above
T1 sequence (P05106 27-788, form in doubt, chain 2 of 2): as the sequence (P05106 27-788, chain 2 of 2, further chain) above

[3] = target: T1, integrin αvβ3 (human vitronectin …); experiment: ELISA on immobilized αvβ3 incubated with 0.1 µg/ml biotinylated fibrinogen (the blocked ligand) and various concentrations of Fab for 3 h at 37 °C; bound fibrinogen detected with NeutrAvidin-alkaline phosphatase

Row | Molecule | EC50 (read off the curve) [2] [µg/mL] | also measured
1 | monoclonal antibody LM609 (murine IgG) |  | decrease in vitronectin-induced migration of human umbilical vein endothelial cells (transwell), antibody at 5 µg/ml [1]: 60%
2 | B1 | ~0.4 | 
3 | B2 |  | IC50 (read off the curve) [3]: ~0.1 µg/mL
4 | B3 | ~0.1 | 
